Measurements as given in the supplement of paper PMC10567573.

B1: TSN (parent)
chain: AFVVYLETETLVTREAVTEILGIE

Variants of: B1
Assay: protein stability index of a GFP-peptide fusion (GPS, HEK-293T) (PSI 1-6); higher = more stable
Details: c terminus: a fixed tail appended
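Note: lentivirally expressed fusions sorted by FACS into six bins by GFP to DsRed ratio, PSI derived from sequencing read proportions per bin multiplied by bin number.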

Variant | protein stability index
AFVVYLETETLVTREAVFEILGIE | 2.48
AFVVYLETETLVTREAVGEILGIE | 1.49
AFVVYLETETLVTREAVQEILGIE | 3.84
AFVVYLETETLVTREAVHEILGIE | 4.07
AFVVYLETETLVTREAVLEILGIE | 2.24
AFVVYLETETLVTREAVEEILGIE | 3.46
AFVVYLETETLVTREAVPEILGIE | 2.79
AFVVYLETETLVTREAVNEILGIE | 4.21
AFVVYLETETLVTREAVAEILGIE | 2.74
AFVVYLETETLVTREAVTIILGIE | 2.11
AFVVYLETETLVTREAVTKILGIE | 3.64
AFVVYLETETLVTREAVTHILGIE | 2.31
AFVVYLETETLVTREAVTNILGIE | 3.7
AFVVYLETETLVTREAVTLILGIE | 3.65
AFVVYLETETLVTREAVTRILGIE | 3.43
AFVVYLETETLVTREAVTCILGIE | 3.83
AFVVYLETETLVTREAVTSILGIE | 1.96
AFVVYLETETLVTREAVTWILGIE | 2.4
AFVVYLETETLVTREAVTFILGIE | 2.17
AFVVYLETETLVTREAVTVILGIE | 3.19
AFVVYLETETLVTREAVTPILGIE | 2.44
AFVVYLETETLVTREAVTQILGIE | 3.48
AFVVYLETETLVTREAVTEIPGIE | 2.34
AFVVYLETETLVTREAVTEIYGIE | 2.1

Variant | protein stability index
AFVVYLETETLVTREAVTEIAGIE | 3.48
AFVVYLETETLVTREAVTEIIGIE | 2.57
AFVVYLETETLVTREAVTEIVGIE | 3.75
AFVVYLETETLVTREAVTEISGIE | 2.04
AFVVYLETETLVTREAVTEINGIE | 2.64
AFVVYLETETLVTREAVTEIGGIE | 2.44
AFVVYLETETLVTREAVTEIEGIE | 1.97
AFVVYLETETLVTREAVTEICGIE | 2.36
AFVVYLETETLVTREAVTEIWGIE | 2.52
AFVVYLETETLVTREEVTEILGIE | 2.77
AFVVYLETETLVTRESVTEILGIE | 3.05
AFVVYLETETLVTREVVTEILGIE | 3.75
AFVVYLETETLVTREQVTEILGIE | 2.67
AFVVYLETETLVTREMVTEILGIE | 2.01
AFVVYLETETLVTRECVTEILGIE | 3.53
AFVVYLETETLVTREWVTEILGIE | 3.37
AFVVYLETETLVTREYVTEILGIE | 2.47
AFVVYLETETLVTREFVTEILGIE | 3.01
AFVVYLETETLVTREPVTEILGIE | 3.89
AFVVYLETETLVTRETVTEILGIE | 2.66
AFVVYLETETLVTRENVTEILGIE | 1.96
AFVVYLETETLVTREDVTEILGIE | 1.97
AFVVYLETETLVTEEAVTEILGIE | 1.43
AFVVYLETETLVTHEAVTEILGIE | 3.6

Variant | protein stability index
AFVVYLETETLVTCEAVTEILGIE | 3.25
AFVVYLETETLVTAEAVTEILGIE | 3.41
AFVVYLETETLVTKEAVTEILGIE | 4.19
AFVVYLETETLVTDEAVTEILGIE | 2.33
AFVVYLETETLVTSEAVTEILGIE | 1.54
AFVVYLETETLVTNEAVTEILGIE | 4.51
AFVVYLETETLVTMEAVTEILGIE | 4.2
AFVVYLETETLVTYEAVTEILGIE | 2.01
AFVVYLETETLVTPEAVTEILGIE | 2.84
AFVVYLETETLVTFEAVTEILGIE | 2.36
AFVVYLETETLVTTEAVTEILGIE | 2.48
AFVVYLETETLVTRLAVTEILGIE | 2.17
AFVVYLETETLVTRHAVTEILGIE | 1.85
AFVVYLETETLVTRVAVTEILGIE | 3.11
AFVVYLETETLVTRCAVTEILGIE | 1.97
AFVVYLETETLVTRIAVTEILGIE | 3.25
AFVVYLETETLVTRFAVTEILGIE | 3.13
AFVVYLETETLVTRMAVTEILGIE | 3.51
AFVVYLETETLVTRDAVTEILGIE | 3.69
AFVVYLETETLVTRYAVTEILGIE | 2.25
AFVVYLETETLVTRSAVTEILGIE | 2.65
AFVVYLETETLVTREAVTEILVIE | 2.04
AFVVYLETETLVTREAVTEILSIE | 1.86
AFVVYLETETLVTREAVTEILNIE | 2.33

Variant | protein stability index
AFVVYLETETLVTREAVTEILYIE | 3.71
AFVVYLETETLVTREAVTEILPIE | 2.86
AFVVYLETETLVTREAVTEILEIE | 2.82
AFVVYLETETLVTREAVTEILFIE | 3.47
AFVVYLETETLVTREAVTEILDIE | 3.2
AFVVYLETETLVTREAVTEILHIE | 3.32
AFVVYLETETLVTREAVTEILAIE | 3.71
AFVVYLETETLVTREAVTEILKIE | 1.74
AFVVYLETETLVTREAVTEILRIE | 3.49
AFVVYLETETLVTREAPTEILGIE | 3.55
AFVVYLETETLVTREAHTEILGIE | 2.62
AFVVYLETETLVTREAYTEILGIE | 3.6
AFVVYLETETLVTREAQTEILGIE | 3.14
AFVVYLETETLVTREAATEILGIE | 2.01
AFVVYLETETLVTREATTEILGIE | 3.01
AFVVYLETETLVTREAMTEILGIE | 4.75
AFVVYLETETLVTREAETEILGIE | 1.4
AFVVYLETETLVTREADTEILGIE | 2.61
AFVVYLETETLVTREAGTEILGIE | 2.21
AFVVYLETETLVTREAVTENLGIE | 1.98
AFVVYLETETLVTREAVTEMLGIE | 3.81
AFVVYLETETLVTREAVTEELGIE | 1.28
